{
  "source": "paper PMC10450741",
  "target": "biotinylated γTuRC-mBFP-AviTag (human | human (endogenous in HeLa-Kyoto)) (UniProt Q9BSJ2)",
  "sequence (Q9BSJ2 whole entry, looked up)": "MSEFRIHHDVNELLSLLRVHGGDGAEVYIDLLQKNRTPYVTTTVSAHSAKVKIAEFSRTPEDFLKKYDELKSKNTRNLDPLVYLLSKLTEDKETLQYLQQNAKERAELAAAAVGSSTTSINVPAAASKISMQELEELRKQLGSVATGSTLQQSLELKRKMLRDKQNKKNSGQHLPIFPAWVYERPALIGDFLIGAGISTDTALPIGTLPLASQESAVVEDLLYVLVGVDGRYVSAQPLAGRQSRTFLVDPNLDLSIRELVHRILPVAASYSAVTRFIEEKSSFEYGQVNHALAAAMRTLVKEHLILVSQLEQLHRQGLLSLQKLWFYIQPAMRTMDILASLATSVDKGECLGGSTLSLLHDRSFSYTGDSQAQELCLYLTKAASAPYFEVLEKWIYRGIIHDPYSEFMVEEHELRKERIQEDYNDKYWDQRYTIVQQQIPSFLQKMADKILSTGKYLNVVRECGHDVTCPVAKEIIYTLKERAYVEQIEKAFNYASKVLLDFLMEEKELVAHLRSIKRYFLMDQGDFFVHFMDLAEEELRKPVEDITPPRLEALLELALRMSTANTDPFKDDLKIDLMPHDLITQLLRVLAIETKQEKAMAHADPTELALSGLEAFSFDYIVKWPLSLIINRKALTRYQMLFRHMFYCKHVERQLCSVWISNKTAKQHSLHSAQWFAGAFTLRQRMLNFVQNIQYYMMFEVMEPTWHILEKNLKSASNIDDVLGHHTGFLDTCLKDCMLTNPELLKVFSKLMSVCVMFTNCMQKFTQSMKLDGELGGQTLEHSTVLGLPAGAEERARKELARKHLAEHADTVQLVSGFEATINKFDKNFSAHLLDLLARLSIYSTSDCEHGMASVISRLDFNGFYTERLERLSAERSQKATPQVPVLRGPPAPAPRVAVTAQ",
  "assay": "TIRF microscopy; γTuRC nucleation assay: biotinylated γTuRC-mBFP-AviTag held on the glass by NeutrAvidin (1-2.5 nM used), 11-15 µM tubulin, 1 mM GTP, 1 mM ATP, with or without mScarlet-KIF2A (20-100 nM), mCherry-MCAK or spastin (100 nM); 33°C, 20-30 min",
  "data": [
    {"substance": "microtubules polymerised from pig brain tubulin (from UniProt P02550 1-451; Q767L7 1-444) (complex)", "values": [
      {"measurement": "percent of microtubules released from immobilized γTuRC (with 20 nM mScarlet-KIF2A alone)", "value": 2, "unit": "%"},
      {"measurement": "percent of microtubules released from immobilized γTuRC (with 100 nM spastin alone)", "value": 1, "unit": "%"},
      {"measurement": "percent of microtubules released from immobilized γTuRC (with 100 nM spastin and 20 nM mScarlet-KIF2A)", "value": 40, "unit": "%"}
    ]}
  ]
}
